Results as given in patent publication US20020034770A1, “COMPOUNDS THAT INTERFERE WITH DNA REPLICATION IN RAPIDLY PRO[…] FOR USE IN CANCER THERAPY AND METHODS FOR SCREENING FOR SUCH COMPOUNDS” (priority 1996, published 2002).

Biological target: T1, Cdc6-associated kinase (Clb/Cdk1 kinases) (Saccharomyces cerevisiae, UniProt P00546)
T1 construct: 1 mg of protein extract from K4527, grown in YEPR at 25° C. or induced for 4 hours in YEPRG, was immunoprecipitated with 12CA5 Ab; endogenous in cells; host or cells: S. cerevisiae strain K4527 (W303 background, wild type, 5 copies of GAL-HA3CDC6); The kinase is endogenous; Only the Cdc6 bait is expressed from an introduced construct
T1 sequence (P00546 whole entry): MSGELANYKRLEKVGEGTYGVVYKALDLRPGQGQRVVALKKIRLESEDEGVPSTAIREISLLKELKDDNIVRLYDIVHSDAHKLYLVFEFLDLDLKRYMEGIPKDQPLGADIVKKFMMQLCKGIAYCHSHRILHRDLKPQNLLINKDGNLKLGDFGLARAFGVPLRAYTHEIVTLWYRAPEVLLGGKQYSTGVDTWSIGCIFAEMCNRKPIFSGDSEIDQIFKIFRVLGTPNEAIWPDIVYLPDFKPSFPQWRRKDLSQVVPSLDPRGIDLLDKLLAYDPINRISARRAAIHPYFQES
Experiment: Histone H1 kinase assay of Cdc6-associated kinase immunoprecipitated with 12CA5 Ab
Type: biochemical
Conditions: HA3Cdc6 immunoprecipitate from K4527 extract (GAL-HA3CDC6, induced 4 hours in YEPRG); FIG. 5D
Procedure: Protein extracts were prepared as in Schwob et al., 1994. For Clb2 kinase assays, […] of total proteins were immunoprecipitated using anti-Clb2 Ab (1:30, Amon et al., 1992). To assay Cdc6-associated kinase, HA3Cdc6 or Cdc6HA3 was immunoprecipitated with 12CA5 Ab (1:10) from the amounts of protein extracts indicated in figure legends. Histone Hi kinase activity was measured as previously described (Schwob et al., 1994).
D) Cdc6-associated kinase is inhibited by p40^SIC1. 1 mg of protein extract from K4527, grown in YEPR at 25° C. or induced for 4 hours in YEPRG, was immunoprecipitated with 12CA5 Ab and before the last washing step split into four aliquots. Kinase activity was measured in the absence or in the presence of the indicated amounts of purified p40^SIC1. R:Raffinose. G: Galactose. The addition of p40^SIC1 causes the appearance of two additional signals probably due to phosphorylation of p40^SIC1 by an aspecific kinase. E) Cdc28p co-immunoprecipitates with Cdc6p. Cdc6p was immunoprecipitated with 12CA5 Ab from protein extracts (5 mg) of K4527 cells grown at 25° C. in YEPR and induced for 4 hours in YEPRG. Protein A-Sepharose beads were boiled in SDS buffer and analysed by Western blot using Cdc28 Ab (1:500) ([…]. R: Raffinose. G: Galactose).

B1: p40^SIC1: purified Clb-specific Cdk inhibitor protein of budding yeast, encoded by SIC1 (protein, UniProt P38634 1-284, looked up)
Protein SIC1: MTPSTPPRSRGTRYLAQPSGNTSSSALMQGQKTPQKPSQNLVPVTPSTTKSFKNAPLLAPPNSNMGMTSPFNGLTSPQRSPFPKSSVKRTLFQFESHDNGTVREEQEPLGRVNRILFPTQQNVDIDAAEEEEEGEVLLPPSRPTSARQLHLSLERDEFDQTHRKKIIKDVPGTPSDKVITFELAKNWNNNSPKNDARSQESEDEEDIIINPVRVGKNPFASDELVTQEIRNERKRAMLRENPDIEDVITYVNKKGEVVEKRRLTDEEKRRFKPKALFQSRDQEH
- Cdc6-associated histone H1 kinase activity on addition of purified p40^SIC1: inhibited
